# Measured values: patent publication US20250339569A1 (3B PHARMACEUTICALS, published 2025)
# Starred links: 1 amine or outer side, 2 acyl side, 3 side chain; linkers in the order of their positions; H or OH if unused. Positions of bridges follow the written chain, without caps; N, C: chain ends. Non-standard residues stand in square brackets, D forms with d. Primed or numbered codes have the meaning given here. *: point of attachment. Aph(2Ta5Sa)″ = 4-amino-L-phenylalanine, ring amine acylated by 5-sulfamoyl-thiophene-2-carboxylic acid, NS(=O)(=O)c1ccc(C(=O)Nc2ccc(C[C@H](N[*:1])C(=O)[*:2])cc2)s1; Af3(2Ta5Sa) = 3-amino-L-phenylalanine, ring amine acylated by 5-sulfamoyl-thiophene-2-carboxylic acid, NS(=O)(=O)c1ccc(C(=O)Nc2cccc(C[C@H](N[*:1])C(=O)[*:2])c2)s1; Af3(3Ta5Sa) = 3-aminophenylalanine, ring amine acylated with 5-sulfamoylthiophene-3-carboxylic acid, NS(=O)(=O)c1cc(C(=O)Nc2cccc(C[C@H](N[*:1])C(=O)[*:2])c2)cs1; Aph(2Ta5Sa) = 4-aminophenylalanine, ring amine acylated with 5-sulfamoylthiophene-2-carboxylic acid, NS(=O)(=O)c1ccc(C(=O)Nc2ccc(C[C@H](N[*:1])C(=O)[*:2])cc2)s1; Aph(3Ta5Sa) = 4-aminophenylalanine, ring amine acylated with 5-sulfamoylthiophene-3-carboxylic acid, NS(=O)(=O)c1cc(C(=O)Nc2ccc(C[C@H](N[*:1])C(=O)[*:2])cc2)cs1; Af3(3MSaBz) = 3-aminophenylalanine, ring amine acylated with 3-(sulfamoylmethyl)benzoic acid, NS(=O)(=O)Cc1cccc(C(=O)Nc2cccc(C[C@H](N[*:1])C(=O)[*:2])c2)c1; Af3(HO-Glutar) = 3-aminophenylalanine acylated on the ring amine with glutaric acid (free COOH), O=C(CCCC(=O)[*:3])Nc1cccc(C[C@H](N[*:1])C(=O)[*:2])c1; Af3(3SaBz) = 3-aminophenylalanine, ring amine acylated with 3-sulfamoylbenzoic acid, NS(=O)(=O)c1cccc(C(=O)Nc2cccc(C[C@H](N[*:1])C(=O)[*:2])c2)c1; Af3(4SaBz) = 3-aminophenylalanine, ring amine acylated with 4-sulfamoylbenzoic acid, NS(=O)(=O)c1ccc(C(=O)Nc2cccc(C[C@H](N[*:1])C(=O)[*:2])c2)cc1; Af3(OPyAc) = 3-aminophenylalanine, ring amine acylated with 2-(2-oxopyridin-1-yl)acetic acid, O=C(Cn1ccccc1=O)Nc1cccc(C[C@H](N[*:1])C(=O)[*:2])c1; Aph(3SaBz) = 4-aminophenylalanine, ring amine acylated with 3-sulfamoylbenzoic acid, NS(=O)(=O)c1cccc(C(=O)Nc2ccc(C[C@H](N[*:1])C(=O)[*:2])cc2)c1; Aph(SaPr)(4) = 4-aminophenylalanine, ring amine acylated with 3-sulfamoylpropanoic acid, NS(=O)(=O)CCC(=O)Nc1ccc(C[C@H](N[*:1])C(=O)[*:2])cc1; Aph(SaPr) = 4-amino-L-phenylalanine, ring amine acylated by 3-sulfamoylpropanoic acid, NS(=O)(=O)CCC(=O)Nc1ccc(C[C@H](N[*:1])C(=O)[*:2])cc1; Af3(SaPr) = 3-aminophenylalanine, ring amine acylated with 3-sulfamoylpropanoic acid, NS(=O)(=O)CCC(=O)Nc1cccc(C[C@H](N[*:1])C(=O)[*:2])c1; Af3(HO-Succinyl)″ = 3-aminophenylalanine, ring amine acylated with succinic acid, O=C(CCC(=O)[*:3])Nc1cccc(C[C@H](N[*:1])C(=O)[*:2])c1; Af3(H-pGlu) = 3-aminophenylalanine with L-pyroglutamyl on the ring amine, O=C1CC[C@@H](C(=O)Nc2cccc(C[C@H](N[*:1])C(=O)[*:2])c2)N1; Af3(Im5) = 3-aminophenylalanine with 1H-imidazole-5-carbonyl on the ring amine, O=C(Nc1cccc(C[C@H](N[*:1])C(=O)[*:2])c1)c1cnc[nH]1; Phe(3-NHCO(CH2)3SO2NH2) = N[C@@H](Cc1cccc(NC(=O)CCCS(N)(=O)=O)c1)C(=O)O; APAc″ = 2-(4-(amino)piperidin-1-yl)acetic acid, NC1CCN(CC(=O)*)CC1; DOTA = O=C(O)CN1CCN(CC(=O)O)CCN(CC(=O)*)CCN(CC(=O)O)CC1; Phe(3,4-Cl2) = N[C@@H](Cc1ccc(Cl)c(Cl)c1)C(=O)O; Phe(3-CF3) = N[C@@H](Cc1cccc(C(F)(F)F)c1)C(=O)O; mXylylene = c1cc(C[*:1])cc(C[*:2])c1; N4AzPhCONH2 = not defined here; PPAc″ = not defined here; APAc = not defined here; Dap = NC[C@H](N)C(=O)O
# Experiments:
# [1] = molecular target: T1, Fc-fusion protein of human carbonic anhydrase IX (human, UniProt Q16790 38-414); assay: SPR, captured hCAIX-Fc; pKD category A: >8.0
# [2] = molecular target: T1, Fc-fusion protein of human carbonic …; assay: SPR, captured hCAIX-Fc; t1/2 category A: >15.0 min
# [3] = molecular target: T2, human carbonic anhydrase IX (CAIX) (human, UniProt Q16790 38-459); assay: FACS competition, HT-29 cells, tracer 3BP-4149; pIC50 category A: >8.0
# Description: (§1) CAIX-expressing human HT-29 colorectal cancer cells (DSMZ, RRID: CVCL_0320) were cultured in McCoys's 5A modified medium (Biochrom, #F1015) including 10% fetal calf serum (FCS), 2 mM L-glutamine, 100 U/ml penicillin and 100 μg/mL streptomycin. Cells were detached with Accutase (Biolegend, #423201) and washed in FACS buffer (PBS including 1% FCS). Cells were diluted in FACS buffer to a final concentration of 500.000 cells per ml. 200 μL of the cell suspension were transferred to a u-shaped non-binding 96-well plate (Greiner) and cells were washed in ice-cold FACS buffer.
# (§2) When biotinylated compounds were used an additional incubation step with 1 μg/mL APC-Streptavidin (Miltenyi; #130-106-791) in 50 μL FACS buffer for 30 minutes on ice was performed.
# (§3) Cells were washed twice with ice-cold FACS buffer and analyzed in an Attune NxT flow cytometer (Thermo Fisher). Median fluorescence intensities (MFI) of the APC/Cy5-channel were calculated by Attune NxT software.
# [4] = molecular target: T2, human carbonic anhydrase IX (CAIX); assay: FACS competition, HT-29 cells, tracer 3BP-4149; pIC50 category B: 7.1-8.0
# Description: as §1, §2, §3
# [5] = molecular target: T1, Fc-fusion protein of human carbonic …; assay: SPR, captured hCAIX-Fc; t1/2 category B: 5.1-15.0 min
# [6] = molecular target: human carbonic anhydrase 9 (CAIX) (human, UniProt Q16790 38-459); assay: FACS competition on HT-29 cells, competitor tracer 3BP-2776; category B = pIC50 7.1-8.0
# Description: as §1, §2, §3
Binder,pKD [1] [pkd],"t1/2 (half-life of the complex, SPR) [2] [min]",pIC50 [3] [pic50],pIC50 [4] [pic50],"t1/2 (half-life of the complex, SPR) [5] [min]",pIC50 [6] [pic50]
{DOTA-APAc}-VDCE[dP]D[Phe(3-NHCO(CH2)3SO2NH2)]LTW[Dap]C-NH2 (lactam 2-11; linker 3-12 via mXylylene; reading uncertain) [3BP-4445],> 8,> 15,> 8,–,–,–
{DOTA-APAc}-VYCE[dP]E(N4AzPhCONH2)WLTWSC-NH2 (linker 3-12 via mXylylene; reading uncertain) [3BP-4388],–,–,–,7.1 to 8,–,–
{DOTA-APAc″}-VYCE[dP]D[Af3(HO-Glutar)]LTWSC-NH2 (linker 3-12 via mXylylene) [3BP-4367],> 8,> 15,> 8,–,–,–
{DOTA-PPAc″}-YCE[dP]D[Aph(2Ta5Sa)″]LTWSC-NH2 (linker 2-11 via mXylylene; reading uncertain) [3BP-4457],> 8,–,> 8,–,5.1 to 15,–
{DOTA-APAc}-VYCE[dP]D[Aph(3SaBz)]LTWSC-NH2 (linker 3-12 via mXylylene; reading uncertain) [3BP-4408],> 8,> 15,> 8,–,–,–
{DOTA-APAc}-VDCE[dP]D[Af3(HO-Succinyl)″]LTW[Dap]C-NH2 (lactam 2-11; linker 3-12 via mXylylene; reading uncertain) [3BP-4377],> 8,> 15,> 8,–,–,–
"{DOTA-APAc}-VDCE[dP]D[Phe(3,4-Cl2)]LTW[Dap]C-NH2 (lactam 2-11; linker 3-12 via mXylylene; reading uncertain) [3BP-4439]",> 8,–,> 8,–,5.1 to 15,–
{DOTA-APAc}-VYCE[dP]D[Af3(SaPr)]LTWSC-NH2 (linker 3-12 via mXylylene; reading uncertain) [3BP-4407],> 8,> 15,> 8,–,–,–
{DOTA-APAc}-VDCE[dP]D[Phe(3-CF3)]LTW[Dap]C-NH2 (lactam 2-11; linker 3-12 via mXylylene; reading uncertain) [3BP-4440],> 8,–,> 8,–,5.1 to 15,–
{DOTA-APAc}-VYCE[dP]D[Aph(3Ta5Sa)]LTWSC-NH2 (linker 3-12 via mXylylene; reading uncertain) [3BP-4401],> 8,> 15,> 8,–,–,–
{DOTA-APAc}-VYCE[dP]D[Af3(3Ta5Sa)]LTWSC-NH2 (linker 3-12 via mXylylene; reading uncertain) [3BP-4412],> 8,> 15,> 8,–,–,–
{DOTA}-DCE[dP]D[Phe(3-NHCO(CH2)3SO2NH2)]LTW[Dap]C-NH2 (lactam 1-10; linker 2-11 via mXylylene; SMILES CC(C)C[C@@H]1NC(=O)[C@H](Cc2cccc(NC(=O)CCCS(N)(=O)=O)c2)NC(=O)[C@H](CC(=O)O)NC(=O)[C@H]2CCCN2C(=O)[C@H](CCC(=O)O)NC(=O)[C@@H]2CSCc3cccc(c3)CSC[C@@H](C(N)=O)NC(=O)[C@H](CNC(=O)C[C@H](NC(=O)CN3CCN(CC(=O)O)CCN(CC(=O)O)CCN(CC(=O)O)CC3)C(=O)N2)NC(=O)[C@H](Cc2c[nH]c3ccccc23)NC(=O)[C@H]([C@@H](C)O)NC1=O) [3BP-4488],> 8,> 15,> 8,–,–,–
{DOTA-APAc}-VYCE[dP]D[Af3(4SaBz)]LTWSC-NH2 (linker 3-12 via mXylylene; reading uncertain) [3BP-4405],> 8,> 15,> 8,–,–,–
{DOTA-APAc}-VYCE[dP]D[Aph(SaPr)(4)]LTWSC-NH2 (linker 3-12 via mXylylene; reading uncertain) [3BP-4400],> 8,> 15,> 8,–,–,–
{DOTA-APAc}-VYCE[dP]D[Af3(2Ta5Sa)]LTWSC-NH2 (linker 3-12 via mXylylene; reading uncertain) [3BP-4413],> 8,> 15,> 8,–,–,–
{DOTA-APAc}-VYCE[dP]D[Aph(2Ta5Sa)]LTWSC-NH2 (linker 3-12 via mXylylene; reading uncertain) [3BP-4402],> 8,> 15,> 8,–,–,–
{DOTA-APAc}-VYCE[dP]D[Af3(3SaBz)]LTWSC-NH2 (linker 3-12 via mXylylene; reading uncertain) [3BP-4409],> 8,> 15,> 8,–,–,–
{DOTA-APAc}-VYCE[dP]D[Af3(OPyAc)]LTWSC-NH2 (linker 3-12 via mXylylene; reading uncertain) [3BP-4370],–,–,–,7.1 to 8,–,–
{DOTA-APAc″}-VYCE[dP]D[Af3(Im5)]LTWSC-NH2 (linker 3-12 via mXylylene) [3BP-4240],–,–,–,–,–,7.1 to 8
{DOTA-APAc″}-VYCE[dP]D[Af3(H-pGlu)]LTWSC-NH2 (linker 3-12 via mXylylene) [3BP-4241],–,–,–,–,–,7.1 to 8
{DOTA}-DCE[dP]D[Aph(SaPr)]LTW[Dap]C-NH2 (lactam 1-10; linker 2-11 via mXylylene; SMILES CC(C)C[C@@H]1NC(=O)[C@H](Cc2ccc(NC(=O)CCS(N)(=O)=O)cc2)NC(=O)[C@H](CC(=O)O)NC(=O)[C@H]2CCCN2C(=O)[C@H](CCC(=O)O)NC(=O)[C@@H]2CSCc3cccc(c3)CSC[C@@H](C(N)=O)NC(=O)[C@H](CNC(=O)C[C@H](NC(=O)CN3CCN(CC(=O)O)CCN(CC(=O)O)CCN(CC(=O)O)CC3)C(=O)N2)NC(=O)[C@H](Cc2c[nH]c3ccccc23)NC(=O)[C@H]([C@@H](C)O)NC1=O) [3BP-4489],> 8,> 15,> 8,–,–,–
{DOTA-APAc}-VYCE[dP]D[Af3(3MSaBz)]LTWSC-NH2 (linker 3-12 via mXylylene; reading uncertain) [3BP-4406],> 8,> 15,> 8,–,–,–
{DOTA-APAc}-VYCE[dP]D[Phe(3-NHCO(CH2)3SO2NH2)]LTWSC-NH2 (linker 3-12 via mXylylene; reading uncertain) [3BP-4369],> 8,> 15,> 8,–,–,–
